# Patent publication US8859723 (dated 2014)
# T1: hDMX (In-house, 40 kD) (human, UniProt O15151 1-120)
# T1 chain: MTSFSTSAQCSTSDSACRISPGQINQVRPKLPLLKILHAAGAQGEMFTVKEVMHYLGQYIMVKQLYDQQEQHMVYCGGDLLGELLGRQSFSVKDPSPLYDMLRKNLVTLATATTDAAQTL
# B1: SP-508 (peptide)
# chain: ETFAAYWAQLAS
# modifications: not fully specified
# B2: SP-681 (peptide)
# chain: LTFAAYWVQLAS
# modifications: not fully specified
# B3: SP-684 (peptide)
# chain: ITFAFYWAQLAS
# modifications: not fully specified
# B4: SP-671 (peptide)
# chain: LTFAEYWAQLAA
# modifications: not fully specified
# B5: SP-623 (peptide)
# chain: LTFAVYWAQLAA
# modifications: not fully specified
# B6: SP-698 (peptide)
# chain: LTFAAYWSQLAA
# modifications: not fully specified
# B7: SP-673 (peptide)
# chain: LTFAAYWAALAS
# modifications: not fully specified
# B8: SP-709 (peptide)
# chain: ETFAAYWAQLAA
# modifications: not fully specified
# B9: SP-696 (peptide)
# chain: WTFALYWSQLAS
# modifications: not fully specified
# B10: SP-604 (peptide)
# chain: LTFAFYWAQLAA
# modifications: not fully specified
# B11: SP-586 (peptide)
# chain: LTFAAYWAQFAS
# modifications: not fully specified
# B12: GST-hDMX (other)
# chain: T1 chain
# B13: GST-hDM2 (other)
# chain: MCNTNMSVPTDGAVTTSQIPASEQETLVRPKPLLLKLLKSVGAQKDTYTMKEVLFYLGQYIMTKRLYDEKQQHIVYCSNDLLGDLFGVPSFSVKEHRKIYTMIYRNLVVVNQQESSDSGTSVSEN
# Target: T2, hDM2 (In-house, 41 kD) (human, UniProt Q00987 1-125)
# Test: FP competition
row,Binder,IC50 [nM]
1,B1,22.8

# Target: T1, hDMX (In-house, 40 kD)
# Test: FP competition
row,Binder,IC50 [nM]
1,B1,88.8

# Target: T2, hDM2 (In-house, 41 kD)
# Test: FP competition
# Remark: another data set of the same source
row,Binder,IC50 [nM]
1,B2,118
2,B3,104
3,B4,63.6
4,B5,68.3
5,B6,82.2
6,B7,137
7,B8,103

# Target: T1, hDMX (In-house, 40 kD)
# Test: FP competition
# Remark: another data set of the same source
row,Binder,IC50 [nM]
1,B2,395
2,B6,157
3,B9,379
4,B10,310
5,B11,673

# Target: SP-5
# Test: Affinity selection MS
row,Binder,Kd [nM]
1,B12,90
2,B13,25

# Target: SP-44
# Test: Affinity selection MS
row,Binder,Kd [nM]
1,B12,180
2,B13,25
